The target of this test is D. melanogaster Isu (fIscU) (D. melanogaster) (UniProt Q9VHK6). Put plainly: SEC.

With “D. melanogaster Isu (fIscU) (from UniProt Q9VHK6 1-154) (natural protein)”, the stoichiometry N was 2.

For orientation: stoichiometry N means a count of units in the complex or per binding partner.

The record behind these values is publication PMC5540154.
